Data reported in the DeepSol protein solubility set.

test: soluble on expression in E. coli; label from the status in PepcDB or PDB records

**Q.** Which “soluble on expression in E. coli” value does the source give for “MIILYDFLQESSVMPRSKNDSKLKKKSALQSKFKEQQLNHGSKEHKSKFKFSQRKAKKKGPGMTHLPGNIYTLFTPVNGPKSKDEWIDTSKIMLDLHIDNMSSSDYIPSAIDRTDLVMVQSVHLLRKTGGRGLFAREDIPKGTCIGIYTGEVYSEQEFEQYLKEHVGSDKSYAMYVGGRVIDAARKGNLTRYINFSDSQDNAEFVETTLNRKKVAKVITTKNIKAGQQLLINYNTYEEQASRYYYFLNPGDGWLSAQEFYQTYQSQYRLEQMPYNLEGFDLKAGDRVLMTQIGRIILANYSLAKEQELNASDIDLPFLKVGSDEKILDFDEADTFTPLMAACYLGQVENVKWLIEHGANIDQQQSHSGHCPLSLTLKGYSLAKDTQKYIDIIQLLIKNQVNLLVHDRSDKTFLHNAALVLNNLDFQSVVKFLIGQNPIDINEYFTYIDENDFDIVMHCYNNKLFDKALVLLAFYPDYFKRNYMSDNEGHNQFNINAFRKAIKDFNSNERSILLMQLRESGLHLPEDLLEQLGIMDSSITLESKFF” here?
**A.** not soluble

**Q.** For “MHTDTPSLESLLEAARQRYDVVFEPLTVDETPLDVLQIRNMRQHIDALVANRSVRDPLHDLPLWAKIWPASFVLGRFLRKASPEGRTLLEVGAGCGVTGLIASRYGFAHVTVSDINEDALLFARANVLKNGLEDRVSVRRVDVASTRLDEKFDVIAASEVLYLEELHRPLIKFLLRHLARREDAVAMLCTDTRRKMGRFFKQAERDFRIEEQLVGIRTTGDDGEEERRVFTIHRLHHKHPLEHHHHHH”, which “soluble on expression in E. coli” value is on record?
**A.** not soluble

**Q.** For “IVMQFPREEYFAPGHRGCAGCGAAIVARLLLKVAGKDTIITNATGCLEVMTTPYPETSWRVPWIHTAFENAAATASGIEAAVKALKRKRGKFADKKINVIAIGGDGGTADIGFQALSGAMERGHDILYIMYDNEAYMNTGIQRSSSTPFMAATTTSPAGSKIRGEDRPKKDMTMIMAAHGIPYVATACISYPEDFMRKVKKALSIEGPKFIQVLQPCTTGWGYPPEKTIEIGRLAVETGIFPLYEIENGEFRITYKPAKRKPVREYLKMQKRYRHLTDEDIERIQKYIDEKCKLLGL”, which “soluble on expression in E. coli” value is on record?
**A.** not soluble

**Q.** With “GKRLSFEDGLVLYQTKDLPTLMRLANLVRERKHGHKTYFVHSIRVSQTNICYVGCTFCAFQRRFGEEGAWDWDVDEVVAWVKERYQPGLTEIHLTAGHHPKRPFAYYLDLVRALKENFPGVQVKAWTAAEIHHFSKIARLPYREVLKALKEAGLDAMPGGGAEIFAERVRRKIARAKVSAEGWLEIHRTAHELGIPTNATMLYGHIETLEERLDHMDRLRRLQDETGGFMSFIPLAFQPDGNQLARELGKKEFTTGLDDLRNLAVARLYLDNFPHIKGYWATLTPELAQVSLDWGVTDVDGTLIEERIVHMAGSPTPQGLTKRELARIILMAGRIPVER” as the sequence, how does the “soluble on expression in E. coli” value read?
**A.** not soluble

**Q.** For “MVEKEKKDEEETRKITISVKGIRDDVYRNVSELARHTGKTIGEITNDAYRTFLGTVEGVRNVSQSFIEGAKGAIPRYIDNFKKLEITADDLKDLGQKVAFRNIDELTFKNITDEEFSKYVAFIDGVKVLKIPKTVKKTTVIKISTFVDEIIQE”, which “soluble on expression in E. coli” value is on record?
**A.** not soluble

**Q.** For “MGSDKIHHHHHHKSTFKQELAVGASFGLNFSSVSFAPKVPTKMKLGFNGGATIRWNTEPNLGIQAELNFTQHGWEEKFEEKPQYKYSRTVNYMELPFLTHIHFGSKRVRVFVNLGPKIGYALSESTESNLNGENPNANRPDEQHTLEVQKKFDWGLCGGPGIELRTGIGSFLLEGRYYYALGDMFNSRKGDTFSKSSSQIISAKLTYLIPIFSK”, which “soluble on expression in E. coli” value is on record?
**A.** not soluble

**Q.** With “MKKTRTANLHHLYHEALPEDVKLTPRVEVDNVHQRRTTDVYEHALTITAWQQIYDQLHPGKFHGEFTEILLDEIQVFREYTGLALRQSCLVWPNSFWFGIPATRGEQGFIGAQGLGSAEIATRPGGTEFELSTPDDYTILGVVISEDVISRQATFLHNPERVLHMLRNQLALEVKEQHKAALWGFVQQALATFSESPETLHQPAVRKVLSDNLLLAMGTMLEEAKPIHSAESISHQGYRRLLSRAREYVLENMSEPLTVLDLCNQLHVSRRTLQNAFHAILGIGPNAWLKRIRLNAVRRELISPWSQSATVKDAAMQWGFWHLGQFATDYQQLFAEKPSLTLHQRMRQWA” as the sequence, how does the “soluble on expression in E. coli” value read?
**A.** not soluble

**Q.** With “MSKTITWTAALLGSMALAGCSGPKTLYQWEGYQAQVHEYFKGESKEAQAQALEADLEKIRAKNGAVPPGYHAQLGLLYSSIGKDDQMVREFETEKALFPESATYMDFLLNNARGGAR” as the sequence, how does the “soluble on expression in E. coli” value read?
**A.** not soluble

**Q.** With “MGSSHHHHHHSSGRENLYFQGMKVVFLICNPAAGGGRAGKIWNRVEDLLKKHGIDHKFAFTERPGHAMEISKKAFKEGYRRIAAFGGDGTVNEMVNGIFLNGYDLREVVFGWIPFGSGKDWARTIGVPLEIEEAIKMLKDGKEFVQDLGVGEYEKASGEIEKRAFVNVAGLFFDGFVTYRTNLLKRKNRVSYFSRIFSSIIEYDPPTARIQIDEKVWEKRVFSMNVGICKYNGGGMNQLPHAVPDDGLLAVTVINDIGKLRILANLHRVFNGKLLEHPGVEGYQAKKVVVEFQRDEPVEFDGESFWAKKIFFSIIPGVIRVLVKK” as the sequence, how does the “soluble on expression in E. coli” value read?
**A.** soluble

**Q.** With “VAHFTFQPDPEPREYGQTQKMNLFQSVTSALDNSLAKDPTAVIFGEDVAFGGVFRCTVGLRDKYGKDRVFNTPLCEQGIVGFGIGIAVTGATAIAEIQFADYIFPAFDQIVNEAAKYRYRSGDLFNCGSLTIRSPWGCVGHGALYHSQSPEAFFAHCPGIKVVIPRSPFQAKGLLLSCIEDKNPCIFFEPKILYRAAAEEVPIEPYNIPLSQAEVIQEGSDVTLVAWGTQVHVIREVASMAKEKLGVSCEVIDLRTIIPWDVDTICKSVIKTGRLLISHEAPLTGGFASEISSTVQEECFLNLEAPISRVCGYDTPFPHIFEPFYIPDKWKCYDALRKMINYGGHHHHHH” as the sequence, how does the “soluble on expression in E. coli” value read?
**A.** soluble

**Q.** For “MSLKMRNNVFVFDSPYCLLIYCILFNHQLHDTIYIYSDNVSLRDINFPGKERYIIKKGNNKTSKIFYYFCFLFRLIINPKLRKLISNRKDYRFLGQDHLFFSKPFLNEFILLEDGLANYRYPHYSRLYKLIIGGHTFGRSTKVNKILLSGMIDIIDPTINDKVEFFDLIAAWEKLNSVQKKEINHIFNYCIEDELVADVMILTQPLSEDGFISENEKIRLYDEIIKEYDDKKIVIRQHPRELTDYSLYFKDVKVNKVKAPVELVVLNSPMIKTAVTLFSGGIFNIPCREKIFKGTSFSPLLSKHFGNISNKFEVKGKKEGHHHHHH”, which “soluble on expression in E. coli” value is on record?
**A.** soluble

**Q.** For “MGSDKIHHHHHHMPVLNSVANTVPTRFRFDLLTHDDNDRLQSDSLCPVGFTSLGREPVRLKFGGTKIRDFCVWKTESATGFEARPRVVSDLVTIRFPISGGLARKDGREEVNIDRGQGVIIPFRDMEYERTSRSASMISCTIASVSIFQKMQALYGEERSTFASFVPVVDVNIPQIRIFRTALLRLHDNLQQHGDHNPLSFPIVEELLVFHLLSCWPTTAAVRPTADQVNNRVLRNALDYIEANLASPITVSEIAFAAGVSVRSLQIAFRESKGITPVQYIIECRLDRVHDALKRGFAPGYISQIANAWGFQHHADFSRRYRKRFGETPKQTRTR”, which “soluble on expression in E. coli” value is on record?
**A.** not soluble

**Q.** For “MSTGTPTTQKVVKTSIRLGPVNPPTPTRNTQGGHGFSAEFLEYRRRRQERHTVRLAKLPNETLIIGGANPFDARNVPEAIKKFRDLVDEKIGDKVHKKDANKSKIVFREEEEETQNGTITID”, which “soluble on expression in E. coli” value is on record?
**A.** not soluble

**Q.** With “MAEEQARHVKNGLECIRALKAEPIGSLAIEEAMAAWSEISDNPGQERATCREEKAGSSGLSKPCLSAIGSTEGGAPRIRGQGPGESDDDAETLGIPPRNLQASSTGLQCHYVYDHSGEAVKGIQDADSIMVQSGLDGDSTLSGGDNESENSDVDIGEPDTEGYAITDRGSAPISMGFRASDVETAEGGEIHELLRLQSRGNNFPKLGKTLNVPPPPDPGRASTSGTPIKKGTDARLASFGTEIASSLTGGATQCARKSPSEPSGPGAPAGNVPECVSNAALIQEWTPESGTTISPRSQNNEEGGDHYDDELFSDVQDIKTALAKIHEDNQKIISKLESLLLLKGEVESIKKQINRQNISISTLEGHLSSIMIAIPGLGKDPNDPTADVEINPDLKPIIGRDSGRALAEVLKKPVASRQLQGMTNGRTSSRGQLLKEFQLKPIGKKMSSAVGFVPDTGPASRSVIRSIIKSSRLEEDRKRYLMTLLDDIKGANDLAKFHQMLVKIIMK” as the sequence, how does the “soluble on expression in E. coli” value read?
**A.** soluble

**Q.** With “FNLKTPGREDDASSESGDNAEAERAPAFIRALGGAANLEVVDACTTRLRLRLVDRNKASDAQLKALGAMAVVRPGKAGSLQVVVGPQADSIADEIRRALPFDTQPGEAVPPLGSPHTAEEVVAMQATVDAAEAQAWLGALGGAGNLREVRDVALTRLRVSVADERKLATEQLRRLGGQGVSSLAGGICHILVGPRAAALSQALQPLLR” as the sequence, how does the “soluble on expression in E. coli” value read?
**A.** not soluble

**Q.** With “MLEEDKIKGMFNPKIWDKTFQDGLKKEIEDSQPYNWGTIHELVNDDLLRAVRKEIETEIHFTKKETDIYRVNQSGDLANLSGLDWDDLSRLPNLFKLRQILYSKQYRDFFGYVTKAGKLSGSKTDMSINTYTKGCHLLTHDDVIGSRRISFILYLPDPDRKWKSHYGGGLRLFPSILPNVPHSDPSAKLVPQFNQIAFFKVLPGFSFHDVEEVKVDKHRLSIQGWYHIPQVGEEGYIPGEEEAWVRNNTSTLAQIESNVLEDFEFPKDERNILSFHEVKHFEKMLKGDAGAKTDNTPKESMTSVISDSVKLSEAEFTYLSQYISPEHLSSKGIEKLQKQFVENSSLQIESFLNDDKSELLKKVIKQKELEQECPYHSKDVKAPWKTAIPPHKARYLYIDGKEYRNFQTEADILEALNNNDLPNFQFTKDAIKIISDASGNSRENNFDAELALIDLAVFHKSTIFKKYLALLTSLCPVSEQILIRRFRPGMDFTLATKCRFNELLKSNPDIIDAVLEGTLCLTPSAGWESGELGGYELYMMDDDEDNKQYLKEDVEDASVYRADDSGDSVLINDPPAWNTFNLVLRDESVLEFVKYVSWSAKSSRWDVKMKWDVKSCDEDGQEDEALEHHHHHH” as the sequence, how does the “soluble on expression in E. coli” value read?
**A.** soluble

**Q.** Which “soluble on expression in E. coli” value does the source give for “MSLKTTFLEFEQPIAELEAKIEELRFVQDDSAVDISEEISRLAAKSQQLTKDLYATLSPWQVAQIARHPQRPYTLDYVREIFTDFHELHGDRTFADDLSIVGGLARFNGQPCMVIGHQKGRDTKERALRNFGMSKPEGYRKAKRLMELADKFGLPIFTFVDTPGAFPGIEAEERGQSEAIGHNLFVMAGLKVPLIATIIGEGGSGGALAIAVGDSVIMLQFATYAVISPEGCASILWKTAEKAPEAAEALGLTAHRLKALGLIDKIVNEPLGGAHRDPKAMATMLKRALAESLRQFQGMKTSELQARRHERLMAYGKFKETGSNEGHHHHHH” here?
**A.** not soluble

**Q.** For “MKSGERSAVADRAQQIMSAARELLDAEGPDALSMRRIAERVGIRAPSLYKHFADKAALVAGLQAQGLTLLAEVQEAAEAEIGADPPLLVLGYAYRRHALASPHLYRITHGWPLARTALPEGLEDRAALPLARAVHGDINIARSFWAFAHGMVVLELDGRFPPGADLDVAWRTGCEAFTQAIRNRPHGSTA”, which “soluble on expression in E. coli” value is on record?
**A.** not soluble

**Q.** With “MEPADEPSELVSAEGRNRKAVLCQRCGSRVLQPGTALFSRRQLFLPSMRKKPALSDGSNPDGDLLQEHWLVEDMFIFENVGFTKDVGNIKFLVCADCEIGPIGWHCLDDKNSFYVALERVSHE” as the sequence, how does the “soluble on expression in E. coli” value read?
**A.** soluble

**Q.** Which “soluble on expression in E. coli” value does the source give for “MAGDIILRVEDLEKRFGGIVALDKVNLEIERGKVTLLIGPNGSGKTTLVNVISGFYKPDGGRVLFKGRDITGMSPHEISKLGLVRTFQIPKPFTNLTVLENVLTAADSPGENVYLAGLARRLWLGFEKRAAARAFEILGWVGLDHMWDRRSGELSGGQMKLLEIARAIMKGAEMIIMDEPAAGVNPRLAGSIMERIKYLAREKGITFLIIEHRIGLVKEYVDRVYAMSMGKVIASGKPDEVLNNPVVLESYLGG” here?
**A.** soluble

**Q.** With “MDQVEIRTHTALHVVKGAVRKVLGAKWTASTYVNSNHGRLTVKFERKPSDQEMDKVFELANEKVRKNLPIIIEVLPREEAERKYGDEIYDLFLISAEVRELSIVVIPDWSINACNKQHTKFTSEIGEIIKDYWRYRNSKQLLEISFDIKC” as the sequence, how does the “soluble on expression in E. coli” value read?
**A.** soluble
